The values below come from patent US20260209320A1 (ALCHEMAB THERAPEUTICS, published 2026).

For experiment [1], the target named is T1, Peptide 6 (human).
T1 peptide: QQPPPPPPPPPPPQL
Nature of the experiment: peptide microarray; Sp H; IgG 1 µg/ml.

Experiment [2] has as its target T2, Peptide 14 (human, cyno).
T2 peptide: PQPQPPPPPPPPPPG
Description: peptide microarray; Sp H; IgG 1 µg/ml.

Experiment [3] concerns the target T3, Peptide 15 (human, cyno).
T3 peptide: QPQPPPPPPPPPPGP
Description: peptide microarray; Sp H; IgG 1 µg/ml.

Experiment [4] has as its target T4, Epitope 1 (human, cyno).
T4 peptide: QQQQPPPPPPPPPPP
Nature of the experiment: peptide microarray; Sp C1; IgG 1 µg/ml.

The next experiment deals with T5, Peptide 1 (human, cyno).
T5 peptide: QQQQQQQQPPPPPPP
Description: peptide microarray; Sp C1; IgG 1 µg/ml.

For another experiment, the target named is T6, Peptide 2 (human, cyno).
T6 peptide: QQQQQQQPPPPPPPP
Nature of the experiment: peptide microarray; Sp C1; IgG 1 µg/ml.

The next experiment concerns the target T7, Peptide 3 (human, cyno).
T7 peptide: QQQQQQPPPPPPPPP
Description: peptide microarray; Sp C1; IgG 1 µg/ml.

The next experiment has as its target T8, Peptide 4 (human, cyno).
T8 peptide: QQQQQPPPPPPPPPP
Nature of the experiment: peptide microarray; Sp C1; IgG 1 µg/ml.

The target of experiment [5] is T9, Peptide 18 (cyno).
T9 peptide: QQQPPPPPPPPPPPP
Description: peptide microarray; Sp C1; IgG 1 µg/ml.

Experiment [6] deals with T10, Peptide 20 (cyno).
T10 peptide: QAQPMLPQPQPPPPP
Nature of the experiment: peptide microarray; Sp C1; IgG 1 µg/ml.

Experiment [7] addresses T11, Peptide 21 (cyno).
T11 peptide: AQPMLPQPQPPPPPP
Description: peptide microarray; Sp C1; IgG 1 µg/ml.

For another experiment, the target named is T12, Peptide 22 (cyno).
T12 peptide: QPMLPQPQPPPPPPR
Description: peptide microarray; Sp C1; IgG 1 µg/ml.

Experiment [8] addresses T2, Peptide 14. Nature of the experiment: peptide microarray; Sp C2; IgG 1 µg/ml.
Experiment [9] concerns the target T3, Peptide 15. Nature of the experiment: peptide microarray; Sp C2; IgG 1 µg/ml.
For experiment [10], the target named is T1, Peptide 6. Nature of the experiment: peptide microarray; Sp H; IgG 10 µg/ml.
Experiment [11] concerns the target T2, Peptide 14. Description: peptide microarray; Sp H; IgG 10 µg/ml.
Experiment [12] deals with T3, Peptide 15. Nature of the experiment: peptide microarray; Sp H; IgG 10 µg/ml.
Experiment [13] addresses T10, Peptide 20. Description: peptide microarray; Sp C1; IgG 10 µg/ml.
Experiment [14] deals with T4, Epitope 1. Nature of the experiment: peptide microarray; Sp C2; IgG 10 µg/ml.
The target in experiment [15] is T2, Peptide 14. Description: peptide microarray; Sp C2; IgG 10 µg/ml.
Experiment [16] addresses T3, Peptide 15. Description: peptide microarray; Sp C2; IgG 10 µg/ml.
In experiment [17] the target is T9, Peptide 18. Description: peptide microarray; Sp C2; IgG 10 µg/ml.
Experiment [18] has as its target T11, Peptide 21. Nature of the experiment: peptide microarray; Sp C2; IgG 10 µg/ml.
The target of the next experiment is T13, Peptide 25 (cyno).
T13 peptide: QQPPPPPPPPPPPPQ
Description: peptide microarray; Sp C2; IgG 10 µg/ml.

The next experiment deals with T14, Peptide 28 (cyno).
T14 peptide: QPMLPQPQPPPPPPP
Description: peptide microarray; Sp C2; IgG 10 µg/ml.

For another experiment, the target named is T15, Peptide 30 (cyno).
T15 peptide: MLPQPQPPPPPPPPP
Description: peptide microarray; Sp C2; IgG 10 µg/ml.

The target in another experiment is T16, Peptide 31 (cyno).
T16 peptide: LPQPQPPPPPPPPPP
Description: peptide microarray; Sp C2; IgG 10 µg/ml.

Experiment [19] has as its target T17, Peptide 41 (mouse).
T17 peptide: PPQPPPQGQPPPPPP
Nature of the experiment: peptide microarray; Sp M; IgG 1 µg/ml.

For experiment [20], the target named is T18, Peptide 23 (cyno).
T18 peptide: QQQQQQQQQQPPPPP
Description: peptide microarray; Sp C2; IgG 1 µg/ml.

The target of experiment [21] is T17, Peptide 41. Nature of the experiment: peptide microarray; Sp M; IgG 10 µg/ml.
Experiment [22] deals with T18, Peptide 23. Description: peptide microarray; Sp C2; IgG 10 µg/ml.

B1: ATL_0005335 (antibody, V domains shown)
VH: EVQLVESGGGLVKPGGSLRLSCAASGFTFNKAWMNWVRQAPGKGLEWVGRIKSGIDGGTTDYAAPVQGRFTISRDDSKNTVYLQMNSLNTEDTAVYYCIPPPYYYYYGLDVWGQGTTVTVSS
VL: QSALTQPASVSGSPGQSITISCTGTSSDIGSYNLVSWYQQHPGNAPKPLIYEGSKRPSGVSARFSGSKSGNTASLTISGLQPEDEADYYCSSYAGFNTLVFGGGTKVTVL
notes: human IgG1; also called ATL_5335
B1: the corrected fluorescence intensity with Peptide 6 [1] was determined as 0; in the experiment with Peptide 14 [2], 335; in the experiment with Peptide 15 [3] it was 234; in the experiment with Epitope 1 [4] it was 391; with Peptide 1 it was 381; with Peptide 2, 667. Moreover, the corrected fluorescence intensity in the experiment with Peptide 3 came to 520; with Peptide 4 it was 536; in the experiment with Peptide 18 [5], 474; with Peptide 20 [6], 187; in the experiment with Peptide 21 [7], 443; in the experiment with Peptide 22, 82. Also, the corrected fluorescence intensity came out at 0 with Peptide 14 [8]; 0 in the experiment with Peptide 15 [9]; 176 with Peptide 6 [10]; 1630 in the experiment with Peptide 14 [11]; 1130 with Peptide 15 [12]; 1190 with Peptide 20 [13]. For the same molecule, the corrected fluorescence intensity came to 9590 with Epitope 1 [14]; 0 in the experiment with Peptide 14 [15]; 0 in the experiment with Peptide 15 [16]; 8370 with Peptide 18 [17]; 448 in the experiment with Peptide 21 [18]; 3300 in the experiment with Peptide 25. Moreover, the corrected fluorescence intensity with Peptide 28 turned out to be 2670; with Peptide 30, 6020; in the experiment with Peptide 31, 7740.

B2: ATL_0005331 (antibody, V domains shown)
VH: EVQLVESGGGLVKPGGSLRLSCAASGFTFNKAWMNWVRQAPGKGLEWVGRIKSGIDGGTTDYAAPVQGRFTISRDDSKNTVYLQMNSLNTEDTAVYYCIPPPYYYYYGLDVWGQGTTVTVSS
VL: QSALTQPRSVSGSPGQSITISCTGTSSDVGSYNLVSWFQQHPGKAPKLIIYEVNKRPSGVPDRFSGSKSGNTASLTVSGLQAEDEADYYCGSYAGTNNVFGTGTKLTVL
notes: human IgG1; also called ATL_5331; Human IgG1 ATL_0005331
With B2, the corrected fluorescence intensity worked out at 55 in the experiment with Peptide 41 [19]; 195 in the experiment with Epitope 1 [4]; 0 in the experiment with Peptide 1; 118 with Peptide 2; 206 in the experiment with Peptide 3; 136 with Peptide 4. Besides, the corrected fluorescence intensity with Peptide 18 [5] turned out to be 137; in the experiment with Peptide 21 [7], 182; in the experiment with Peptide 22 it was 91; with Peptide 23 [20], 0; in the experiment with Peptide 41 [21] it was 197; with Epitope 1 [14], 4580. Besides, the corrected fluorescence intensity with Peptide 18 [17] was 4500; in the experiment with Peptide 21 [18], 888; with Peptide 23 [22], 148; with Peptide 25, 947; in the experiment with Peptide 28 it was 1700; in the experiment with Peptide 30, 4250. This molecule also had a corrected fluorescence intensity in the experiment with Peptide 31 of 5480.
